Test results as given in paper PMC5651819, “AtSPX1 affects the AtPHR1–DNA-binding equilibrium by binding monomeric AtPHR1 in solution” (Biochemical Journal, 2017).

Molecular target: T1, MBP–AtdPHR1 (DNA-binding domain and coiled-coil domain of AtPHR1 fused to maltose-binding protein) (Arabidopsis thaliana, UniProt Q94CL7 208-362)
T1 construct: cloned in pMAL-c2x via BamHI and HindIII; the methods print 208–362, and the predicted mass of 60 651 fits 208–362 with MBP; also called MBPdAtPHR1; MBPdPHR1; source: E. coli BL21-gold (DE3), purified (amylose resin, IEX on HiTrap Q-HP); not shown: MBP, N-terminal, kept
Assay: pull-down; MBP–AtdPHR1 from cell lysate immobilised on amylose matrix and washed, incubated with affinity-purified GST–AtSPX1 for 2 h at 4°C, eluted with 10 mM maltose, anti-GST blot; buffer with Pi (PBS pH 7.4, 200 mM NaCl, 1 mM EDTA, 1 mM DTT), compared with buffer without Pi (20 mM Tris pH 7.5, 200 mM NaCl, 1 mM EDTA, 1 mM DTT)
Conditions: both partners purified

T1 sequence (Q94CL7 208-362): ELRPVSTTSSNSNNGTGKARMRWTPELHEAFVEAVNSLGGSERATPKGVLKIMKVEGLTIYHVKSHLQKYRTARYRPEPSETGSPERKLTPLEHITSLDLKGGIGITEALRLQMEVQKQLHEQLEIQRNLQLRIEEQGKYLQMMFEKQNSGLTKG

fold more in elution fraction E1 in the presence of phosphate than in its absence: 1.5 fold
fold more in elution fraction E2 in the presence of phosphate than in its absence: 3.5 fold
B1: GST–AtSPX1 (N-terminal GST-tagged full-length AtSPX1) (natural protein, Arabidopsis thaliana, UniProt Q8LBH4 1-256, looked up)
chain: MKFGKSLSNQIEQTLPEWQDKFLSYKELKKRLKLIGSKTADRPVKRLRLDEFSVGISKEEINFIQLLEDELEKFNNFFVEKEEEYIIRLKEFRDRIAKAKDSMEKMIKIRKEIVDFHGEMVLLENYSALNYTGLVKILKKYDKRTGDLMRLPFIQKVLQQPFYTTDLLFKLVKESEAMLDQIFPANETESEIIQAELSEHKFMESLHMKSTIAALRVLKEIRSGSSTVSVFSLPPLQLNGLDETWKKIPLLEQEAK
notes: AtSPX1, Arabidopsis thaliana, At5G20150.1, full-length cDNA in pGEX-2T via BamHI and EcoRI; also called GST–SPX1; not shown: GST, N-terminal, kept
